Patent publication US20230190932A1 (Genentech, Inc., priority 2021, published 2023)
Entries after “also recorded” stand apart in the source; their conditions may differ.

Assays:
[1] = Chen N et al. Clin Pharmacokinet. 2017; cited from earlier work
CD4+ and CD8+ T-cell = details: Haslett et al. 1998; Davies et al. 2001; cited from earlier work
[2] = Study CO41942: mosunetuzumab pharmacokinetics in combination with lenalidomide vs popPK simulation of monotherapy (Study GO29781); type: in vivo, human; details: 1/2/30 mg IV Q4W; N = 13; preliminary
[3] = system: patients with relapsed or refractory follicular lymphoma; details: in vivo
Protocol: Patients with r/r FL after at least one prior systemic therapy are eligible to enter the study.
Lenalidomide 20 mg was the dose for all patients.

R/R NHL patients [4] = assay: Related study with monotherapy mosunetuzumab (IV): safety summary
R/R NHL patients [5] = details: in vivo

## Nc1cccc2c1CN(C1CCC(=O)NC1=O)C2=O (racemic) [lenalidomide, (3RS)-3-(4-Amino-1-oxo-1,3-dihydro-2H-isoindol-2-yl)piperidine-2,6-dione]
[1]
  route of excretion: primarily excreted in the urine
CD4+ and CD8+ T-cell
  immunomodulatory activity on T cells: enhance CD4+ and CD8+ T-cell co-stimulation, induce T-cell proliferation, and enhance IL-2 and IFN-γ

## Mosunetuzumab: anti-CD20/anti-CD3 bispecific antibody, INN List 117, CAS Registry Number 1905409-39-3
[2]
  mosunetuzumab PK in combination with lenalidomide compared with monotherapy: similar; also recorded: consistent with what was expected
  observed concentration measurements vs popPK model simulated 5th to 95th prediction intervals: fell generally within
[3]
  AESI by PT: Alanine aminotransferase increased: 1 (6.3%)
  AESI by PT: Aspartate aminotransferase increased: 1 (6.3%)
  AESI by PT: Cytokine release syndrome: 5 (31.3%)
  AESI by PT: Neutropenia: 4 (25.0%)
  AESI by PT: Pleural effusion: 1 (6.3%)
  AESI by PT: Thrombocytopenia: 1 (6.3%)
  AESI: Overall total number of events: 20
  Blood and lymphatic system disorders: Total number of AESI events: 10
  Blood and lymphatic system disorders: Total number of Grade 3-5 events: 9
  Blood and lymphatic system disorders: patients with at least one AESI: 4 (25.0%)
  Blood and lymphatic system disorders: patients with at least one Grade 3-5 AE: 4 (25.0%)
  Grade 3-5 AE: Erythema (Skin and subcutaneous tissue disorders): 1 (6.3%)
  Grade 3-5 AE: Erythema (listed under Investigations): 1 (6.3%)
  Grade 3-5 AE: Neutropenia: 4 (25.0%)
  Grade 3-5 AE: Rash maculo-papular (Skin and subcutaneous tissue disorders): 1 (6.3%)
  Grade 3-5 AE: Rash maculo-papular (listed under Investigations): 1 (6.3%)
  Immune system disorders: Total number of AESI events: 7
  Immune system disorders: patients with at least one AESI: 5 (31.3%)
  Investigations: Total number of AESI events: 2
  Investigations: Total number of Grade 3-5 events: 2
  Investigations: patients with at least one AESI: 1 (6.3%)
  Investigations: patients with at least one Grade 3-5 AE: 1 (6.3%)
  Respiratory, thoracic, and mediastinal disorders: Total number of AESI events: 1
  Respiratory, thoracic, and mediastinal disorders: patients with at least one AESI: 1 (6.3%)
  Skin and subcutaneous tissue disorders: Total number of Grade 3-5 events: 2
  Skin and subcutaneous tissue disorders: patients with at least one Grade 3-5 AE: 2 (12.5%)
  Total number of patients with at least one AESI: 7 (43.8) %
  Total number of patients with at least one Grade 3-5 AE: 5 (31.3%)
R/R NHL patients [4]; N = 213
  AESI: ALT increased: 22 (10.3) N (%)
  AESI: AST increased: 14 (6.6) N (%)
  AESI: Febrile neutropenia: 6 (2.8) N (%)
  AESI: Thrombocytopenia: 14 (6.6) N (%)
  AESI: Tumor flare: 4 (1.9) N (%)
  AESI: Tumor lysis syndrome: 3 (1.4) N (%)
  AEs leading to dose modification/interruption: 29 (13.6) N (%)
  AEs leading to dose modification/interruption: Mosunetuzumab: 29 (13.6) N (%)
  AEs leading to treatment withdrawal: 7 (3.3) N (%)
  AEs leading to treatment withdrawal: Mosunetuzumab: 7 (3.3) N (%)
  Deaths: 64 (30.0) N (%)
  Grade 3-5 AEs: 141 (66.2) N (%)
  Patients who experienced at least one adverse event (AE): 207 (97.2) N (%)
  Serious AEs: 107 (50.2) N (%)
  Total number of AEs: 2258
  Treatment-related AEs: 183 (85.9) N (%)
  Treatment-related AEs: Mosunetuzumab: 183 (85.9) N (%)
R/R NHL patients [4]; N = 213, does not include death due to progressive disease
  Fatal AEs: 5 (2.3) N (%)
R/R NHL patients [4]; per ASTCT criteria, N = 213
  AESI: Cytokine release syndrome: 79 (37.1) N (%)
R/R NHL patients [5]
  AESI: Neutropenia/neutrophil count decrease: 56 (26.3) N (%)
